From US20110118177

What was measured:
[1] = test system: cyanophycin (multi-L-arginyl-poly-[L-aspartic acid]), Cyanophycin Granule Polypeptide
[2] = test system: bovine casein (Hammersten-grade) (Merck, Darmstadt, Germany)
[3] = target: bovine serum albumin (BSA) (Roth, Karlsruhe, Germany) (UniProt P02769)
bovine serum albumin (BSA) (Roth, Karlsruhe, Germany), sequence (P02769 25-607): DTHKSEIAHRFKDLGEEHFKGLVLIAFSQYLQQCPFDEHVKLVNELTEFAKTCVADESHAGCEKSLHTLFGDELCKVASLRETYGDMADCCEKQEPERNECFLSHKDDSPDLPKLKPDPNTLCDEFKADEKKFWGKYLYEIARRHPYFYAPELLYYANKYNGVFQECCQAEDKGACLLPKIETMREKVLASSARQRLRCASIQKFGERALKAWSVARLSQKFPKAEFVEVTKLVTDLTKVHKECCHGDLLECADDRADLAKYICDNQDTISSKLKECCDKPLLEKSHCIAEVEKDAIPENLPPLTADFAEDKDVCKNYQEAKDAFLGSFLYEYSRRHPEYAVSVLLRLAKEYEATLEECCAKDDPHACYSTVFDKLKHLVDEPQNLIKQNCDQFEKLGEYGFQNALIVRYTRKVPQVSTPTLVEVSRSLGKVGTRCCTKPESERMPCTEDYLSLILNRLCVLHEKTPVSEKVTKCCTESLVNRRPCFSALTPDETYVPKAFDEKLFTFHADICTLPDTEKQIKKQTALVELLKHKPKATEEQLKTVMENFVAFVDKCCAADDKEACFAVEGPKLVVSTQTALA

Substance: extracellular cyanophycinase (CGPase) CphEal from Pseudomonas alcaligenes strain DIP1
- degradation activity (substrate specificity test) [1]: showed the highest degradation activity on CGP
- degradation (substrate specificity test) [2]: Bovine casein and poly(aspartic acid) were minimally affected by the enzymatic activity of the purified CphEal
- degradation (in comparison to CGP) [3]: also BSA was partially degraded (65% in comparison to CGP)
